1 molecule from paper PMC7483680 (Experimental parasitology, 2020) can be followed below.

For the experiment, the target named is T1, recombinant GST-tagged wild-type Toxoplasma gondii GCN5b bromodomain (BRD) (Toxoplasma gondii, UniProt S8F3V2 877-986).
T1 sequence (looked up): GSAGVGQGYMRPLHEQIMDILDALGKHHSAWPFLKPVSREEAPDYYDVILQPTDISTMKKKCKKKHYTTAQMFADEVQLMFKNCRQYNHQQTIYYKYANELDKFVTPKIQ
The experiment can be described thus: pull-down.

B1: biotinylated tetra-acetylated histone H4 peptide (K5/8/12/16), residues 1-18 of human histone H4 (peptide, UniProt P62805 2-19, looked up)
peptide: SGRGKGGKGLGKGGAKRH
modifications: acetyl-lysine at K5, K8, K12 and K16; biotin (position not given)
Turning to B1, the binding result was “binds”.
